Reference: US20150167106 (NEC Solution Innovators, Ltd., published 2015)

B1: RHA0385_s28 (ssDNA)
DNA: TTGGGGTTATTTTGGGAGGGCGGGGGTT
B2: RHA0006 (ssDNA)
DNA: GGTTAGCCCGTCCCGAGATAACTCGGTGTGTTGGGTTTGGGTTGGGTTGGGTCTTAACACACGGCGGCTGTAG
modifications: 3' poly(dA)24 tail for SPR
B3: RHA0002 (ssDNA)
DNA: GGTTAGCCCGTCCCGAGATAACTCGGGGTGTTTGATGGTTTGGTCTGGTTGGCTTAACACACGGCGGCTGTAG
modifications: 3' poly(dA)24 tail for SPR
B4: RHA0471_s51 (ssDNA)
DNA: TCCTCGTTGGGGGTGGTGGTGGGTTTCGGTTCATGGGTGGGACGGAGAGGA
B5: Control (ssDNA)
DNA: CGGCGTTTGGTTGGCGTGAACCATTTTTAAGTT
modifications: 3' poly(dA)24 tail for SPR; 3' biotin for ELAA
B6: RHA0127 (ssDNA)
DNA: CCTGCACCCAGTGTCCCTGGGTCGGCTAATTTGGCATTTGGGGTGGTTTGGGGGGGGGACGGAGAGGAGGACGG
modifications: 3' poly(dA)24 tail for SPR
B7: RHA1634_s60 (ssDNA)
DNA: GGGCACCCTCTCGCTGTACGGTTGATGCACGTTTCTTTCTCTTTATATTGCTGGGTGCCC
B8: RHA0002_s33 (ssDNA)
DNA: GTGTTTGATGGTTTGGTCTGGTTGGCTTAACAC
modifications: 3' poly(dA)24 tail for SPR
B9: RHA0002_s33 (ssDNA)
DNA: GTGTTTGATGGTTTGGTCTGGTTGGCTTAACAC
B10: RHA1635_s62 (ssDNA)
DNA: GGGGCCCACCCTCTCGCTGGCGGCTCTGTTCTGTTCTCGTCTCCTTGATTTCTGTGGGCCCC
B11: RHA0111 (ssDNA)
DNA: CCTGCACCCAGTGTCCCGTGCTCCGGGGGTTGGGCGTGGTGGGTCTGTCGGGTTTCGGACGGAGAGGAGGACGG
modifications: 3' poly(dA)24 tail for SPR
B12: RHA0006_s19 (ssDNA)
DNA: GGGTTTGGGTTGGGTTGGG
modifications: 3' poly(dA)24 tail for SPR
B13: RHA0006_s19_d5 (ssDNA)
DNA: GGGTTTGGGTTGGGTTGGGTTTTTGGGTTTGGGTTGGGTTGGG
modifications: 3' poly(dA)24 tail for SPR; 3' biotin (detection) or 3' amino (capture) for ELAA

Legend:
[1] = biological target: HA1Aichi (hemagglutinin HA1) (Influenza A virus A/Aichi/2/1968, UniProt P03437 SEQ:17-345); assay: SPR; conditions: tags: Sino Biological #11707-V08H1
[2] = biological target: BSA (bovine serum albumin) (Bos taurus, UniProt P02769 P02769:25-607); assay: SPR; specificity control; conditions: tags: Nippon Gene
[3] = biological target: MIF (macrophage migration inhibitory factor) (UniProt P14174 P14174:2-115); assay: SPR; specificity control; conditions: tags: His tag; ATGen
[4] = biological target: T1, HA1Aichi (hemagglutinin HA1) (Influenza A virus A/Aichi/2/1968, UniProt P03437 SEQ:17-345); assay: SPR; negative control; conditions: tags: Sino Biological #11707-V08H1
[5] = biological target: T1, HA1Aichi (hemagglutinin HA1); assay: SPR; conditions: tags: Sino Biological #11707-V08H1; remark: listed apart in the source

MIF (macrophage migration inhibitory factor), sequence (P14174 2-115, one chain of several): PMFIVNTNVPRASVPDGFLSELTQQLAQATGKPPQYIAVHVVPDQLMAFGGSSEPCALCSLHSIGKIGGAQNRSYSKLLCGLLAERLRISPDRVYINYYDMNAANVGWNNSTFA
BSA (bovine serum albumin), sequence (P02769 25-607, one chain of several): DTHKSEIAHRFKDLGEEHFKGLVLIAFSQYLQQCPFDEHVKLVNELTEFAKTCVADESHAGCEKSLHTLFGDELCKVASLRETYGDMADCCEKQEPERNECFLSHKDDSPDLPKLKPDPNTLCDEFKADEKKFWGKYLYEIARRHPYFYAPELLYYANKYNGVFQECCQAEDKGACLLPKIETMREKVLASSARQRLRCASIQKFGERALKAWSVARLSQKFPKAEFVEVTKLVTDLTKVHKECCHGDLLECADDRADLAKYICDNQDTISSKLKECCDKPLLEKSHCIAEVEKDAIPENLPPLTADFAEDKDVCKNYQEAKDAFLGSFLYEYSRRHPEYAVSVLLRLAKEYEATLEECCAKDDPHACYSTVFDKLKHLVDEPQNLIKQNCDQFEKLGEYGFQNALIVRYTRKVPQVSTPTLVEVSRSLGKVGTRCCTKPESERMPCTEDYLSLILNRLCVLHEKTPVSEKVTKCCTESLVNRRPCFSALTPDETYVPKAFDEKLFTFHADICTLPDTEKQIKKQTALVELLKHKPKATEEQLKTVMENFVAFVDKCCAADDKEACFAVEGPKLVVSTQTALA

| Binder | binding result [1] | binding result [2] | binding result [3] | other results |
| --- | --- | --- | --- | --- |
| B1 | binds |  |  |  |
| B2 |  | no binding | no binding |  |
| B3 |  | no binding | no binding |  |
| B4 | binds |  |  |  |
| B5 |  |  |  | binding result [4]: no binding |
| B6 |  | no binding | no binding |  |
| B7 | binds |  |  |  |
| B8 |  | no binding | no binding |  |
| B9 | binds |  |  |  |
| B10 | binds |  |  |  |
| B11 |  | no binding | no binding |  |
| B12 |  | no binding | no binding |  |
| B13 |  |  |  | binding result [5]: binds |
